From the nanobody polyreactivity screen of Harvey et al. (2022)

Test: yeast display, Sf9 membrane polyspecificity reagent, FACS + sequencing; frameworks hold sequencing errors
Method in brief: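 Using colony PCR, genes from sorted yeast display clones were amplified, then sequenced on MiSeq at 2 × 250 and filtered by CDR length. The clones had been stained with 10% biotinylated, detergent-solubilized Sf9 membrane reagent for 1 hour at 4 °C and sorted by FACS into low and high (top ~1%) gates on anti-HA and streptavidin fluorescence. Polyreactivity labels come from the gate of origin.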

QVQLVESGGGLVQAGGSLRLSSAASGRTFFGYAMGCYRQAPGTERELVAVISYSDGSTYYADSVKGRFTISRDNAKNTVYLQMNSLKPEDTAVYYCNARSRVGNSGADYDYWGQGTQETVSS
polyreactivity (PSR sort gate): low polyreactivity

QVQLVESGGGLVQAGGILRLTCAASGSIFGTYAMGWYRTPPGKERELVSAITRRSGRTYYADSVKGRFTISRDNAKNTVNLQMNCLKQEDTAVYYCAKRPVIDDDYWGQGTQETVSS
polyreactivity (PSR sort gate): high polyreactivity

QVQLVESGGGLVQAGGSLRLSCAPSGSTFGSNAMGWYRQAPGKERELVAAINSGDSTSYADSVKGRFTISRDNAKNTVYLQMNSLKPEDTAGYYCATRSYTFVWRHDYWGQGTQVTVSS
polyreactivity (PSR sort gate): low polyreactivity

QVQLVESGGGLVQAGGSLRLSCAASGRIFIYYARGWYRQAPGKERELVAAISGGGGRTYYADSVKGRFTISRDNAKNTVYLQMNSLKPEDTAVYYCAAGVYTGQDEYDYWGQGTQVTVSS
polyreactivity (PSR sort gate): low polyreactivity

QVQLVESGGGLVQAGGSLRLSCAASGRTLRSYTMGWYRQAPGKERELVAAINWNGGTTYYADSVKGRFTISRDNAKNTVYLQMNSLKAEDTAVYYCAAESSRWHTYWYSLSNLGRGYWGQGTQVTVSS
polyreactivity (PSR sort gate): high polyreactivity

QVQLVESGGGLVQAGGSLRLSCAASGFTFKAYAMGWYRQAPGKERELVAAITRSGGRTYYADSVKGRFTISRDNAKNTVYLQMNSLKPEDTAVYYCARDYTRYAYDHWGQGTQVTVSS
polyreactivity (PSR sort gate): high polyreactivity

QVQHVESGGGLVQAGGSLRLSCAASGRTFKYNAMGWYRQAPGKEWELVAVIRYSGGTTYYADSVKGRFTISRDNAKNTVYLQMNSLKPEDTAVYYCAADSWSRSVNYYYWVQGTQVTVSS
polyreactivity (PSR sort gate): low polyreactivity

QVQLVESGGGLVQAGGSLRLSCAASGRIFASYAMGWYRQAPGKERELVAAISLSGGSTYYADSVKGRFTISRDNAKNTVYLQMNSLKPEDTAVYYCNARAIGWRIYDYWGQGTQVTVSS
polyreactivity (PSR sort gate): high polyreactivity

QVQLVESVGGLVQAGGSLRISCAASGSTLTRNTMGWYRPAPGKEREFVATITRSGGSTYYADSVKGRFTISRDNAKNTVYLQMNSLKPEDTAVYYCAVRRQTFRYVYPGMDYWGQGTQVTVSS
polyreactivity (PSR sort gate): high polyreactivity

QVQLVESGGGLVQAGGSLRLSCAASGRTFSRNAMGRYRQAPGKVRELVATISSSGVRTYYADSVKGRFTMSRDNAKNTVYLQMNSLKPEETAVYYWAAAWRYYSAASGYDYWGQGTLVTVSS
polyreactivity (PSR sort gate): low polyreactivity

QVQLVESGGGLVQAGGSLRLSCAASGRTFATYAMGWYRQAPGKERELVAAITSGGSTYYADSVKGRFTISRDNAKNTVYLQMNSLKPEDTAVYYCAAARKYYGYNYWGQGTQVTVSS
polyreactivity (PSR sort gate): high polyreactivity

QVQLVESGGGLVQAGGSLRLSCAASGFTFVYYAMGWYRPAPGKERDLVATISGNGGRTYYADSVKGRFTISRDNAKNTVYLQMNSLKPEDTAVYYCATDVGFGRKQRPHRPGYGYWGQGTQVTVSS
polyreactivity (PSR sort gate): low polyreactivity

QVQLVESGGGIVQAGGSLRLSCAASGSTFRGYAMGWYRQAPGKETELVAAITSRGTRTYYADSVKGRFTISRDNSKNTVSLQMNSLKPEDTAVYYCNVVSDIRLYYRYAYDYWGQGTQVTVSS
polyreactivity (PSR sort gate): high polyreactivity

QVQLVESGGGLVQAGGSLRLSCAASGRTFLRYAMGWYRQAPGKERELVAAISVSGGNTYYADSVKGRFTISRDNAKNTVYLQMKSLKPEDTAVYYCNKARLAAVFSYPYGYWGQGTQVTVSS
polyreactivity (PSR sort gate): low polyreactivity

QLQLVDSGGGLVQAGGSLRLSCAASGSIFGAYAMGWYRHAPGKERELVAAINYGGATTYYADSVKGRFTISRDNAKNTVYLQMNSLIPEDTAVYYCAADYLYAYGDVADVYGWYAYYYWGQGTQVTVSS
polyreactivity (PSR sort gate): low polyreactivity

QVQLVESGGGLVQAGGSLRLSCAASGSIFKTNARGLYRQAPGTEREFVAAISWSGGSTYADSVKGRFTISRDTAKNTVYLQMNSLKPEDTAVYYCAAVDYYYYGVYSSWYDYWGQGTQVTVSS
polyreactivity (PSR sort gate): low polyreactivity

QVQLVESGGGLVQAGGSLRLSCAASGGTFSYYAMGWYRQAPGKERELFASISSGGSTYYADSVKGRFTISRDNAKNTVYLQMNSLKPEDTAVYYCNAEARSRRYRYDYWGQGTQVTVSS
polyreactivity (PSR sort gate): high polyreactivity

QLQLVESGGGLVQSGGSLRLSCAASGRTFDWYTKGWYRQAPGKERELVAAITSGGTTNYADSVKGRFTISRDNAKNTVYLQMNSLKPEDTAVYYCAKDEGEGYDYWGQGTQVTVSS
polyreactivity (PSR sort gate): low polyreactivity

QVQLVESGGGLVQAGGSLRLSCAASGRIFGYYAMGWYRQAPGKERELVAAITRGGSTNYADSVKGRFTISRDNAKNTVYLQMNSLKPEDTAVYYCNARRYRPGSASYDYWGQGTQVTVSS
polyreactivity (PSR sort gate): high polyreactivity

QVQLVESGGGLVQAGGSLRLSCAASGSTFVGYAMGWYRPAPGKERELVAAITIRGGSTYYADSVKGRFTISRDNAKNNVYLQMNSLKPEDTAVYYCAADYWYGGFEYWGQGTQVTVSS
polyreactivity (PSR sort gate): low polyreactivity

QVHLVESGGGLFQAGGSLRLSCAPSGSITGYYAMGWYRQAPGKERDLVASIRNTGARTYYADSVKGRFTISRDNAKKTVYIQKNSLKAEDTAVYYCAADVKRDRVRGGDDWGQGTQVTVSS
polyreactivity (PSR sort gate): low polyreactivity

QVQLVESGGGLVQAGGSLRLSCAASGYNFAYYAMGWYRQAPGTERELVAAISWSGSSTYYADSVKGRFTISRDNAKNTVYLQMNSLKPEDTAVYYCAKGYTSYNLGKYGYCGQGTQVTVSS
polyreactivity (PSR sort gate): low polyreactivity

QVQLVESGGGLVQAGGSLRLSCAASGSTFGPNAMGWYRQAPGKERELVATISFRGGTTYYADSVKGRFTISRDNAKNTVYLQMNSLKPEDTAVYYCAVKVGYVRLLYHYYYWGQGTQVTVSS
polyreactivity (PSR sort gate): high polyreactivity

QVQLVESGGGLVQAGGSLRLSCAASGSIFEGYVMGWYRPAPGKVRELVAAISWSGGSTYYADSVKGRFTISRDNAKNTVYLQMNSLKPEDTAVYYCAAYGYDRYGRTRYNSWGQGTQVTVSS
polyreactivity (PSR sort gate): high polyreactivity

QVQLVESGGGLVQAGGSLRLSCAASGNIFHFYAMGWYRQAPGKERELVATISWRGDGTYYADSVKGRFTISRDNAKYTVYLQMNSLKPEDTAVYYCAARGVWPEYDYWGQGTQVTVSS
polyreactivity (PSR sort gate): low polyreactivity

QVQLVESGGGLVQAGGSLRLSCAASGFTFYKYAMGWYRQAPGKEREFVASITVRTGSTSYADSVKGRFTISRDNAKNTVYLQMNSLKPEDTAVYYCAAETYYYSWYYLGYTYDYWGHGTQVTVSS
polyreactivity (PSR sort gate): high polyreactivity

QVQLVESGGGLVQAGGSLRLSCAASGSTFKRNAMGWYRQAPGKERELVAAISFRGGSTYYADSVKGRFTISRDNAKNTVYLQMNSLKPEDTAVYSCAAGIYRIRGGGISFDYWGQGTQVTVSS
polyreactivity (PSR sort gate): high polyreactivity

QVLLVESGGGLVQEGGSLRLSCAASGITFDTYAMGGYRQAPGKEREFVASIKWITGNTYYEDSVKGRFTISRDNAKNTVYLQMNSLKTEDTAVYYCAARTYYVRGLGGRPGMDYWGQGTQVTVSS
polyreactivity (PSR sort gate): low polyreactivity

QVQLVESGGGLVQAGGSLRLSCAASGRIFTIYAMGWYRQAPGKERELVAAITRGGNTNYADSVKGRFTISRDNAKNTVYLQMNSLKPEDTAVYYCAARANVYTKKRDYWGQGTQVTVSS
polyreactivity (PSR sort gate): high polyreactivity

QVQLVESGGGLVQAGGSLRLSCAASGRIIGRYVRGWYRQAPGKERELVAAITRGGSTNYADSVKGRYTISRDNAKNTVYLQMNSLKPEDTAVYYCARAYSTVNRYSMYYWGQGTQVTVSS
polyreactivity (PSR sort gate): high polyreactivity

QVQLVESGGGLVQAGGSLRLSCDASGSTFAYNVMGWYRQAPGKERELVAAISRSGGSTYYADSVKGRFTISRDNAKNTVYLQMNSLKPEDTAVYYCAKLFRPRLQDGYWGQGSQVTVSS
polyreactivity (PSR sort gate): high polyreactivity
